Results: patent US20170247448A1 (INTRINSIC LIFESCIENCES, published 2017)
Numbering of substitutions follows the chain as printed.

T1: Human hepcidin peptide (hepcidin-25) (human)
T1 construct: Synthetic 25 aa peptide; also called hep-25; Hep-25
T1 peptide: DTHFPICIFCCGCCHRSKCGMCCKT

B1: BAP070-hum01 (antibody, IgG1, V domains shown)
VH: QVQLVQSGAEVKKPGASVKVSCKASGYTFTNYGMNWVRQARGQRLEWIGWINTYTGEPTYADDFKGRLTISKDTSKNQVVLTMTNMDPVDTATYYCTTYATSWYWGQG
VL: DIQMTQSPSSLSASVGDRVTITCRASESVDSYGNSFMHWYQQKPGQAPRLLIYRASNLESGVPSRFSGSGSGTDFTFTISSLQPEDIATYYCQQSNEDLTFG
notes: Expressed as soluble IgG1 in CHO cells, tested as supernatant; The entries stop inside FR4 (...WGQG / ...FG); also called humanized hit 1
B2: BAP070-hum03 (antibody, IgG1, V domains shown)
VH: QVQLVQSGAEVKKPGASVKVSCKASGYTFTNYGMNWVRQATGQGLEWMGWINTYTGEPTYADDFKGRFVFSLDTSVSTAYLQICSLKAEDTAVYYCTTYATSWYWGQG
VL: B1 VL with D1A, M4L
notes: Expressed as soluble IgG1 in CHO cells, tested as supernatant; The entries stop inside FR4
B3: BAP070-hum05 (antibody, IgG1, V domains shown)
VH: EVQLVQSGAEVKKPGESLRISCKGSGYTFTNYGMNWIRQPPGKGLEWIGWINTYTGEPTYADDFKGRVTISADKSISTAYLQWSSLKASDTAMYYCTTYATSWYWGQG
VL: B1 VL
notes: as for B2
B4: BAP070-hum04 (antibody, V domains shown)
VH: B1 VH
VL: AIQLTQSPSSLSASVGDRVTITCRASESVDSYGNSFMHWFQQRPGQSPRRLIYRASNLESGIPPRFSGSGYGTDFTLTINNIESEDAAYYFCQQSNEDLTFG
notes: as for B2
B5: BAP070-hum06 (antibody, IgG1, V domains shown)
VH: B3 VH
VL: B1 VL with D1A, M4L
notes: as for B2
B6: BAP070-hum02 (antibody, IgG1, V domains shown)
VH: B1 VH
VL: AIQLTQSPSSLSASVGDRVTITCRASESVDSYGNSFMHWYQQKPGKAPKLLIYRASNLESGIPARFSGSGSGTEFTLTISSLQSEDFAVYYCQQSNEDLTFG
notes: as for B2
B7: BAP070-01 (human-mouse chimeric MAb 583) (antibody, human IgG1, kappa, V domains shown)
VH: QIQLVQSGPELKKPGETVKISCKASGYTFTNYGMNWVKQAPGKGLKWMGWINTYTGEPTYADDFKGRFAFSLETSASTAYLQINNLKNEDTATYFCTTYATSWYWGQGTLVTVSS
VL: DIVLTQSPASLAVSLGQRATISCRASESVDSYGNSFMHWYQQKPGQPPKLLIYRASNLESGIPARFSGSGSRTDFTLTINPVEADDVATYYCQQSNEDLTFGQGTKVEIKR
notes: used as CHO cell supernatant; also called BAP070-1

Target: T1, Human hepcidin peptide (hepcidin-25)
Assay: titration affinity ELISA, hepcidin 100 ng/well on Nunc Immobilizer Amino plate, CHO supernatant; antibody 100 ng/ml
Experimental: (§1) FIGS. 17A-C. Titration affinity ELISA of humanized hits. FIG. 17A: Assay layout. CHO cells were seeded in 6 well plates, transfected with BAP070-01 (recombinant chimera), BAP070-01 humanized hits or vector only using BioAtla's transfection protocol and cultured at 37° C. in DMEM with 10% serum. Supernatants were collected at 48 hours post-transfection. Concentration of IgG in the supernatant was determined using BioAtla's quantitation ELISA. […] Vector only supernatant (column 7) was used as negative control. Bound antibodies were detected with anti-human IgG conjugated with HRP (1:2500). The reactions were stopped with 1 N HCl at 1.5 minutes after TMB was added to the wells and read immediately. OD 450 nm value of the reactions was measure with Molecular Device SPECTRAMAX® Plus. FIG. 17B: OD 450 nm value of the reactions measured with Molecular Device SPECTRAMAX® Plus. FIG. 17C: SOFTMAX® graph of […] data (Brown triangle: BAP070-01 recombinant chimeric antibody). X axis: Antibody concentration in ng/ml. Y axis: OD 450 nm values

| OD 450 nm | Binder |
| --- | --- |
| 3.3 OD450 | B1 |
| 3.27 OD450 | B2 |
| 3.11 OD450 | B3 |
| 3.35 OD450 | B4 |
| 3.25 OD450 | B5 |
| 3.31 OD450 | B6 |
| 3.33 OD450 | B7 |

Target: T1, Human hepcidin peptide (hepcidin-25)
Assay: titration affinity ELISA, hepcidin 100 ng/well on Nunc Immobilizer Amino plate, CHO supernatant; antibody 25 ng/ml
Experimental: as §1

| OD 450 nm | Binder |
| --- | --- |
| 2.83 OD450 | B1 |
| 2.62 OD450 | B2 |
| 2.63 OD450 | B3 |
| 2.81 OD450 | B4 |
| 2.69 OD450 | B5 |
| 2.77 OD450 | B6 |
| 2.57 OD450 | B7 |

Target: T1, Human hepcidin peptide (hepcidin-25)
Assay: titration affinity ELISA, hepcidin 100 ng/well on Nunc Immobilizer Amino plate, CHO supernatant; antibody 12.5 ng/ml
Experimental: as §1

| OD 450 nm | Binder |
| --- | --- |
| 2.26 OD450 | B1 |
| 1.95 OD450 | B2 |
| 1.94 OD450 | B3 |
| 2.33 OD450 | B4 |
| 2.12 OD450 | B5 |
| 2.32 OD450 | B6 |
| 1.8 OD450 | B7 |

Target: T1, Human hepcidin peptide (hepcidin-25)
Assay: titration affinity ELISA, hepcidin 100 ng/well on Nunc Immobilizer Amino plate, CHO supernatant; antibody 1.56 ng/ml
Experimental: as §1

| OD 450 nm | Binder |
| --- | --- |
| 0.827 OD450 | B1 |
| 0.564 OD450 | B2 |
| 0.59 OD450 | B3 |
| 0.827 OD450 | B4 |
| 0.75 OD450 | B5 |
| 0.804 OD450 | B6 |
| 0.492 OD450 | B7 |

Target: T1, Human hepcidin peptide (hepcidin-25)
Assay: titration affinity ELISA, hepcidin 100 ng/well on Nunc Immobilizer Amino plate, CHO supernatant; antibody 3.13 ng/ml
Experimental: as §1

| OD 450 nm | Binder |
| --- | --- |
| 1.29 OD450 | B1 |
| 0.925 OD450 | B2 |
| 0.949 OD450 | B3 |
| 1.38 OD450 | B4 |
| 1.15 OD450 | B5 |
| 1.28 OD450 | B6 |
| 0.793 OD450 | B7 |

Target: T1, Human hepcidin peptide (hepcidin-25)
Assay: titration affinity ELISA, hepcidin 100 ng/well on Nunc Immobilizer Amino plate; antibody 0 ng/ml (blank)
Experimental: as §1

| OD 450 nm | Binder |
| --- | --- |
| 0.05 OD450 | B1 |
| 0.051 OD450 | B2 |
| 0.037 OD450 | B3 |
| 0.045 OD450 | B4 |
| 0.042 OD450 | B5 |
| 0.048 OD450 | B6 |
| 0.05 OD450 | B7 |

Target: T1, Human hepcidin peptide (hepcidin-25)
Assay: titration affinity ELISA, hepcidin 100 ng/well on Nunc Immobilizer Amino plate, CHO supernatant; antibody 6.25 ng/ml
Experimental: as §1

| OD 450 nm | Binder |
| --- | --- |
| 2.05 OD450 | B1 |
| 1.6 OD450 | B2 |
| 1.48 OD450 | B3 |
| 2 OD450 | B4 |
| 1.68 OD450 | B5 |
| 1.85 OD450 | B6 |
| 1.32 OD450 | B7 |

Target: T1, Human hepcidin peptide (hepcidin-25)
Assay: titration affinity ELISA, hepcidin 100 ng/well on Nunc Immobilizer Amino plate, CHO supernatant; antibody 50 ng/ml
Experimental: as §1

| OD 450 nm | Binder |
| --- | --- |
| 3.02 OD450 | B1 |
| 2.93 OD450 | B2 |
| 2.85 OD450 | B3 |
| 2.99 OD450 | B4 |
| 3.06 OD450 | B5 |
| 2.98 OD450 | B6 |
| 3 OD450 | B7 |
